{"source": "patent US8629107B2", "about": "“Genes and proteins associated with angiogenesis and uses thereof” (National Jewish Health, priority 2005, dated 2014)", "molecules": {"B1": {"name": "lumican: SLRP family secreted proteoglycan stably expressed in MB114 cells by retroviral transduction (protein, UniProt P51885 19-338, looked up)", "Lumican": "QYYDYDIPLFMYGQISPNCAPECNCPHSYPTAMYCDDLKLKSVPMVPPGIKYLYLRNNQIDHIDEKAFENVTDLQWLILDHNLLENSKIKGKVFSKLKQLKKLHINYNNLTESVGPLPKSLQDLQLTNNKISKLGSFDGLVNLTFIYLQHNQLKEDAVSASLKGLKSLEYLDLSFNQMSKLPAGLPTSLLTLYLDNNKISNIPDEYFKRFTGLQYLRLSHNELADSGVPGNSFNISSLLELDLSYNKLKSIPTVNENLENYYLEVNELEKFDVKSFCKILGPLSYSKIKHLRLDGNPLTQSSLPPDMYECLRVANEITVN"}, "B2": {"name": "SMOC-2: secretory protein stably expressed in MB114 cells by retroviral transduction (protein, UniProt Q8CD91 22-447, looked up)", "SPARC-related modular …": "QKFSALTFLRVDQDKDRDCSLDCPSSPQKPLCASDGRTFLSRCEFQRAKCKDPQLEIAHRGNCKDVSRCVAERKYTQEQARKEFQQVFIPECNDDGTYSQVQCHSYTGYCWCVTPNGRPISGTAVAHKTPRCPGSINEKVPQREGAGKADDAAAPALETQPQGDEEDIASRYPTLWTEQVKSRQNKTNKNSASSCDQEHQSALEEAKQPKNDNVVIPECAHGGLYKPVQCHPSTGYCWCVLVDTGRPIPGTSTRYEQPKCDNTARAHPAKARDLYKNRPLQGCPGAKKHEFLTSVLDALSTDMVHAVSDPSSSSGRLSEPDPSHTLEERVVHWYFKLLDKNSSGDIGKKEIKPFKRFLRKKSKPKKCVKKFVEYCDMNNDKSITVQELMGCLGVTREEGKANTRKRHTPRGNAESSSSNRQPRKQG"}}, "key": {"[1]": {"test_system": "vessel formation and infiltration into Matrigel plugs", "assay": "Matrigel plug implantation assay", "type": "in vivo, C57BL/6 mice", "experimental": "The effect of MAGP-2 on vessel formation and infiltration into Matrigel plugs implanted into genetically normal mice was determined as described (Albig et al, 2006). Briefly, phenol red-free Matrigel (BD biosciences, Bedford, Mass.) was mixed with PBS (diluent), bFGF (50 or 300 ng/ml; R&D Systems, Minneapolis, Minn.), or recombinant MAGP-2 (1 μg/ml) together with bFGF (50 ng/ml), and the resulting mixtures were injected twice subcutaneously in the ventral groin area (400 μl/injection) of C57BL/6 mice. The mice were sacrificed 10 days post-implantation and the Matrigel plugs were dissected, fixed overnight in 10% formalin, and sectioned in the National Jewish Histology Laboratory. Afterward, Masson's trichrome staining was performed to visualize infiltrating vessels, which were quantified under a light microscope by determining the average number of vessels present in 5 random fields (200× magnification). Only those fields that contained at least one vessel in the area underlying the skin were tallied. Two mice were used per experimental condition and this experiment was performed three times in its entirety. All animal studies were performed according to protocol procedures approved by the Animal Care and Use Committee at National Jewish Medical and Research Center.\nThe inventors tested this hypothesis by utilizing the Matrigel plug implantation assay, which monitors the ability of various angiogenic agents to alter vessel formation and infiltration into Matrigel plugs implanted subcutaneously into normal mice. […] MAGP-2 purity was monitored by coomassie staining, and by immunoblotting with anti-FLAG M2 monoclonal antibodies (FIG. 2A; right panel). rMAGP-2 (1 μg/ml) stimulated angiogenic sprouting of quiescent MB114 cell monolayers (FIG. 2A; left panel). […] Afterward, the Matrigel plugs were fixed, sectioned, and stained with Masson's trichrome to visualize infiltrating blood vessels (FIG. 2B; right panels; arrows denote blood vessels), which were quantified by manual counting under a light microscope. […]"}, "MB114 cells [2]": {"test_system": "MB114 cells", "assay": "cell proliferation, [3H]thymidine incorporation assay", "type": "cell-based, murine", "experimental": "(§1) The effect putative angiogenic agents had on MB114 cell activities were determined as follows: (i) cell proliferation using a [^3H]thymidine incorporation assay as described (Albig et al, 2006; Albig and Schiemann, 2004; Albig and Schiemann, 2005); (ii) cell invasion through Matrigel matrices using a modified Boyden-chamber assay as described (Albig et al, 2006; Albig and Schiemann, 2004; Albig and Schiemann, 2005); (iii) p38 MAPK phosphorylation using immunoblot analyses as described (Albig et al, 2006; Albig and Schiemann, 2004; Albig and Schiemann, 2005); (iv) angiogenic sprouting in rat tail collagen matrices as described (Albig et al, 2006; Albig and Schiemann, 2004); and (v) Hes1- and SBE-driven luciferase reporter gene assays as described (Albig et al, 2006; Albig and Schiemann, 2004; Albig and Schiemann, 2005).\n(§2) FIG. 1A show results from an experiment in which serum-starved MB114 cells, stably expressing either GFP or various putative angiogenic agents, were stimulated in the absence or presence of either bFGF (50 ng/ml) or EGF (10 ng/ml) for 24 h at 37° C. Differences in MB114 cell DNA synthesis was determined by measuring [^3H]thymidine incorporation into cellular DNA. […] In this experiment, invasion of MB114 cells expressing either GFP or various putative angiogenic agents through synthetic basement membranes was determined over 48 h using a modified Boyden-chamber assay."}, "p38 MAPK": {"test_system": "p38 MAPK", "assay": "p38 MAPK phosphorylation by immunoblot analyses", "type": "cell-based, murine", "settings": "serum-starved MB114 cells expressing the transgene; bFGF 50 ng/ml or EGF 10 ng/ml, 0-15 min", "experimental": "as §1\nThe inventors' previous studies have associated stimulation of p38 MAPK activity with angiogenesis of MB114 cells and, conversely, inhibition of p38 MAPK activity with angiostasis of MB114 cells (Albig et al, 2006; Albig and Schiemann, 2004; Albig and Schiemann, 2005). […] The phosphorylation status of p38 MAPK was determined by immunoblotting whole cell lysates with phospho-specific p38 MAPK antibodies (p38-P). Differences in protein loading were monitored by reprobing stripped membranes with anti-p38 MAPK polyclonal antibodies (p38)."}, "MB114 cells [3]": {"test_system": "MB114 cells", "assay": "angiogenic sprouting in rat tail collagen matrices", "type": "cell-based, murine", "settings": "MB114 cells stably expressing the transgene vs GFP; 10% FBS, 5 days", "experimental": "as §1\nFinally, it was determined whether expression of these putative angiogenic factors could effect the angiogenic sprouting of quiescent MB114 cells monolayers. MB114 cells expressing either GFP or various putative angiogenic agents were grown to confluency, and subsequently were overlaid with rat tail collagen matrices. Angiogenic sprouting by quiescent EC monolayers was stimulated by inclusion of 10% FBS and allowed to proceed for 5 days. The quantity of invading angiogenic sprouts was determined by manual counting under a light microscope.\nBased on the findings described in the Examples above, the inventors hypothesized that MAGP-2 promotes angiogenesis by antagonizing Notch1 signaling. To test this hypothesis, it was first determined whether inhibiting Notch signaling in MB114 cells would enhance their angiogenic sprouting. In doing so, MB114 cells were transiently transfected with the Hes1-luciferase reporter gene (and pCMV-β-gal cDNA as control), and subsequently were treated overnight with or without the highly specific gamma-secretase inhibitor, DAPT (Sastre et al, 2001), which inhibits S3-mediated cleavage of Notch1 and, consequently, NICD-mediated induction of Hes1 expression. Afterward, luciferase and β-gal activities were determined. […] In this experiment, quiescent MB114 cell monolayers were overlaid with rat tail collagen matrices, and were induced to form angiogenic sprouts by addition of 10% FBS supplemented with or without DAPT (10 μM). Five days later the number of invading angiogenic spouts were quantified by manual counting on a light microscope. Based on these findings, the inventors conclude that Notch activation functions in mediating angiostasis in MB114 cells. […] Collectively, these findings indicate that Notch1 signaling antagonizes angiogenic sprouting in MB114 cells, and that downregulation of Notch1 signaling components is necessary for angiogenesis activation in MB114 cells.\nHaving shown that Notch1 signaling mediates angiostasis in MB114 cells, the inventors next asked whether MAGP-2 promotes angiogenesis in MB114 cells via its ability to antagonize Notch signaling. To do so, MAGP-2-expressing MB114 cells were engineered to constitutively express active Notch1 NICD fragment in an attempt to overcome the block of Notch processing mediated by MAGP-2. More particularly, GFP-, MAGP-2-, and MAGP-2/N1ICD-expressing MB114 cells were transiently transfected with pHes1-luciferase and pCMV-β-gal cDNAs. Luciferase and β-gal activities were determined 48 h post-transfection. As the inventors observed previously, MAGP-2 expression reduced Hes1-luciferase activity in MB114 cells (FIG. 5C), a reaction that was bypassed by co-expression of NICD in these cells (FIG. 5C). […] In this experiment, quiescent monolayers of GFP-, MAGP-2-, and MAGP-2/N1ICD-expressing MB114 cells were overlaid with rat tail collagen matrices and incubated in the absence or presence of 10% FBS for 5 days. Afterward, the number of invading angiogenic sprouts were determined by manual counting under a light microscope."}, "MCA102 fibrosarcomas": {"test_system": "MCA102 fibrosarcomas", "assay": "MCA102 fibrosarcomas produced in mice", "type": "in vivo"}, "MB114 cells [4]": {"test_system": "MB114 cells", "assay": "cell invasion through Matrigel matrices, modified Boyden-chamber assay", "type": "cell-based, murine", "settings": "MB114 cells stably expressing the transgene vs GFP; 48 h", "experimental": "as §1, §2"}}}
{"molecule": "bFGF: growth factor (R&D Systems) mixed into Matrigel at 50 or 300 ng/ml [reference compound]", "values": [{"measurement": "vascularization of implanted Matrigel plugs", "setting": "[1]; 50 or 300 ng/ml in Matrigel vs diluent, subcutaneous, C57BL/6 mice, day 10", "value": "dose-dependently stimulated"}]}
{"molecule": "B1", "values": [{"measurement": "MB114 cell proliferation", "setting": "MB114 cells [2]; transgene expression in MB114 cells, data not shown", "value": "inhibit"}, {"measurement": "p38 MAPK phosphorylation", "setting": "p38 MAPK", "value": "significantly inhibited"}, {"measurement": "angiogenic sprouting of quiescent MB114 cell monolayers", "setting": "MB114 cells [3]", "value": "significantly decreased"}, {"measurement": "development and infiltration of vessels in Matrigel plugs implanted into mice", "setting": "[1]; unpublished observations", "value": "antagonizes"}, {"measurement": "growth of MCA102 fibrosarcomas produced in mice", "setting": "MCA102 fibrosarcomas; unpublished observation", "value": "decreases"}, {"measurement": "blood vessel density of MCA102 fibrosarcomas produced in mice", "setting": "MCA102 fibrosarcomas; unpublished observations", "value": "decreases"}]}
{"molecule": "B2", "values": [{"measurement": "proliferative response of MB114 cells to bFGF ([3H]thymidine incorporation into cellular DNA)", "setting": "MB114 cells [2]; serum-starved MB114 cells stably expressing the transgene vs GFP, bFGF 50 ng/ml, 24 h, 37° C.", "value": "significantly enhanced"}, {"measurement": "MB114 cell invasion through synthetic basement membranes", "setting": "MB114 cells [4]", "value": "significantly induced"}, {"measurement": "angiogenic sprouting of quiescent MB114 cell monolayers", "setting": "MB114 cells [3]", "value": "significantly increased"}]}
